Common to all, as to assay: EMSA
Background: A gel shift assay detects complexes by their altered migration in electrophoresis.

The subject of data set [1] is ZFP Clone 7 (6-finger) (artificial). Particulars: probe flanks not given; 0.1 mM ZnCl2, 100 mM NaCl, on ice.
Data set [2] concerns ZFP Clone 5 (BCTV L1 6-finger) (artificial). Particulars: 10 mM Tris-HCl pH 7.5, 100 mM NaCl, 1 mM MgCl2, 0.1 mM ZnCl2, 1 mg/ml BSA, 10% glycerol, poly(dA-dT)2, on ice.
Data set [3] has as its system ZFP Clone 6 (6-finger) (artificial). Particulars: probe flanks not given; 0.1 mM ZnCl2, 100 mM NaCl, on ice.

From patent publication US20030082561 come the findings set out here.

On to “TACGTGGCATTGGGTGCTC (double strand) [Clone 7 target]”, for which, in data set [1], the Kd – broadly, the concentration at which binding is half-saturated – is less than 3 pM.

In the case of “TATATATATTGGGTGCTTTGGGTGCTCTATATATA (double strand) [L1 19-bp target probe]”, in data set [2], the Kd was less than 3 pM.

As to “AGTAAGGTAGGAGATGATA (double strand) [Clone 6 target]”, the Kd in data set [3] was less than 3 pM.
